This is an account of results in US20150299726A1, “AHAS MUTANTS” (BASF PLANT SCIENCE GMBH, priority 2007, published 2015).

This test concerns AHAS minus E. coli. The test is described as follows: E. coli complementation assay, Arabidopsis AHASL mutants (AE plasmids) with imazethapyr. It is filed as cell-based. As to conditions: colony size scored visually in the presence of imazethapyr. An excerpt: Vectors AE10 through AE24 were made as follows. The wild type Arabidopsis thaliana AHAS large subunit gene was amplified under mutagenic conditions using the Genemorph II random mutagenesis kit (Stratagene, La Jolla, Calif.), resulting in randomly mutagenized amplified DNA fragments of this gene. This mutant DNA was then cloned back into AE7, replacing the wild type A. thaliana large subunit gene (between the unique SacII and AgeI sites on AE7) with the mutagenized forms. This DNA was transformed into E. coli strain TOP10 and selected on LB agar medium in such a fashion as to have a large number of unique transformants, each with independent, mutagenized AHAS genes. These colonies were scraped together and plasmid DNA was prepared from this entire primary library. This DNA was transformed into AHAS minus E. coli and again selected on LB agar media with carbenicillin. Plasmid positive colonies from this step were replica plated using velveteen onto minimal agar medium without branched chain amino acids and containing 30-micromolar imazethapyr.
The DNA sequence of the A. thaliana AHAS large subunit gene was determined for each of the growth positive colonies. […] Because the AHAS function and imidazolinone tolerance screen was on a secondary library, replicates of the same mutations were found, as determined by DNA sequence analysis. […]

B1: AE7: E. coli expression plasmid, Arabidopsis AHASL wild type (protein, UniProt P17597 56-670, looked up)
Acetolactate synthase, …: SSSPSSISAVLNTTTNVTTTPSPTKPTKPETFISRFAPDQPRKGADILVEALERQGVETVFAYPGGASMEIHQALTRSSSIRNVLPRHEQGGVFAAEGYARSSGKPGICIATSGPGATNLVSGLADALLDSVPLVAITGQVPRRMIGTDAFQETPIVEVTRSITKHNYLVMDVEDIPRIIEEAFFLATSGRPGPVLVDVPKDIQQQLAIPNWEQAMRLPGYMSRMPKPPEDSHLEQIVRLISESKKPVLYVGGGCLNSSDELGRFVELTGIPVASTLMGLGSYPCDDELSLHMLGMHGTVYANYAVEHSDLLLAFGVRFDDRVTGKLEAFASRAKIVHIDIDSAEIGKNKTPHVSVCGDVKLALQGMNKVLENRAEELKLDFGVWRNELNVQKQKFPLSFKTFGEAIPPQYAIKVLDELTDGKAIISTGVGQHQMWAAQFYNYKKPRQWLSSGGLGAMGFGLPAAIGASVANPDAIVVDIDGDGSFIMNVQELATIRVENLPVKVLLLNNQHLGMVMQWEDRFYKANRAHTFLGDPAQEDEIFPNMLLFAAACGIPAARVTKKADLREAIQTMLDTPGPYLLDVICPHQEHVLPMIPSGGTFNDVITEGDGRIKY
Turning to B1, the “E. coli Imazethapyr Tolerance Score” value is “− (IN)”.
